The results in this text go back to article PMC12055985.

pEC50: −log10 of the molar value.

The target of this assay is gH/gL expressed on the surface of CHO-K1 cells (UniProt P89445). The experiment in a line: ELISA. On the technique in general: In an ELISA, binding on a coated surface is turned into a signal by an enzyme label.
Sequence of gH/gL expressed on the surface of CHO-K1 cells (P89445 19-838, chain 1 of 2): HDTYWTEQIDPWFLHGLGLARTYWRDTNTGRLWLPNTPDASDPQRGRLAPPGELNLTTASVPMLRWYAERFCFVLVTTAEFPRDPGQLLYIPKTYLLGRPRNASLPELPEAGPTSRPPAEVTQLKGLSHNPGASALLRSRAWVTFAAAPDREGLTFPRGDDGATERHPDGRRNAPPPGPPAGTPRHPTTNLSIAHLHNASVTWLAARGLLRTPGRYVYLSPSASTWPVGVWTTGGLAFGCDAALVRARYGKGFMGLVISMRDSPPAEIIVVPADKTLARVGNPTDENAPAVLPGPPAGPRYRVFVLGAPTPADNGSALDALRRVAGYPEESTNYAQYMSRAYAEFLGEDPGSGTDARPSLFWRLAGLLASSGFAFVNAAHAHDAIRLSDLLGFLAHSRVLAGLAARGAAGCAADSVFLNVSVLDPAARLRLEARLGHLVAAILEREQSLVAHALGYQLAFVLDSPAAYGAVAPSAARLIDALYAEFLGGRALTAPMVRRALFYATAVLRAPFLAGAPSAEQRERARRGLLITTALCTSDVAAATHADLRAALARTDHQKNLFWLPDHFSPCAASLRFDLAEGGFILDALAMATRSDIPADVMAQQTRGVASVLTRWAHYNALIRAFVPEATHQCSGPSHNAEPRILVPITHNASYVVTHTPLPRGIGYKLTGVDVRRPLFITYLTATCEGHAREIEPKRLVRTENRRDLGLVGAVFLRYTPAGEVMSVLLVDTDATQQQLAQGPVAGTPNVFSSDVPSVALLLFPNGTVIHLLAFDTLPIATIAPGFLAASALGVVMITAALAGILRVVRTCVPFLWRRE
Sequence of gH/gL expressed on the surface of CHO-K1 cells (P28278 17-224, chain 2 of 2, further chain): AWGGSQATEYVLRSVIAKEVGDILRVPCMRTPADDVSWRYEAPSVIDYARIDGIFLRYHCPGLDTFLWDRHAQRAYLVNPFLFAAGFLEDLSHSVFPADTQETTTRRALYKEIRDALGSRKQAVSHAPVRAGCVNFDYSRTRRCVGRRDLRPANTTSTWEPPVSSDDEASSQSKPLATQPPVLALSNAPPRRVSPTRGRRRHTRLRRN

For orientation: pEC50 means the negative decadic logarithm of the EC50, by convention in mol/L. The substance “HSV-2 gD (aa1-275) with C-terminal His tag (domain or fragment)” had a negative logarithm of the EC50 (pEC50) of 5.89.
